Patent US20260234655A1, “Nuclear Targeted DNA Delivery and Compositions for Use in Practicing the Same” (Seawolf Therapeutics, Inc., priority 2022, published 2026)
“Also recorded” adds a separate entry of the source.

Legend:
[1] = system: growth-arrested HepG2 cells; assay: Arrayed DTS screen in growth-arrested HepG2 cells; GFP intensity by live-cell imaging; type: cell-based; conditions: 24 h post-transfection
From the text: DNA construct design. Each DTS was constructed in pentameric repeat using a 15 bp spacer between each TFBS. The DTS was appended just 5′ to the promoter, effectively in a putative enhancer region. Various promoters were employed in these constructs, including CBh (a variant of the CAG promoter) and TTR. Several reporter genes were employed in these constructs, including enhanced Green Fluorescent Protein (eGFP). The polyadenylation (polyA) signal is a BGH-PolyA sequence. For pooled screening, unique molecular identifiers (UMIs; also known as barcodes) were used to distinguish between DNA constructs in a pool, and the UMIs were appended to the 3′UTR immediately downstream of the stop codon of eGFP, just preceding the BGH-PolyA sequence.
Cell culture. HepG2 cells were plated into a 384-well plate and grown for 48 hours to achieve confluency. Cell media was removed and replaced with culture media supplemented with Aphidicolin (1 uM) using EL406 automated plate washer and dispenser, then cells were transfected with DTS containing 17.5 ng plasmids using Lipofectamine 3000 without supplement. Expression of GFP was monitored using a Biotek Cytation 5 cell imaging reader over 24 hours to evaluate DTS activity. Total GFP per well was calculated and averaged over 4 well replicates.
pDNAs containing various DTSs (Table 12) were transfected individually into growth-arrested HepG2 cells. Cell growth was inhibited to prevent dissolution of the nuclear envelope. GFP expression was quantified over a period of 24 h post-transfection by measuring GFP intensity using quantitative live-cell imaging. Statistical analysis and hierarchical clustering methods were used to easily differentiate strong DTSs from weak DTSs in a heatmap (FIG. 5A). […] DTS.203: CREB1, PPARA, ONECUT1, HNF4A, PPARA. DTS.233: HNF1A, NR113, PPARA, HNF1A, PPARA. DTS.276: FOXA1, HNF4A, HNF1A, HNF4A, HNF1A.
For the arrayed screen, pDNAs containing various DTSs were transfected individually into growth-arrested HepG2 cells. For the pooled screen, pDNAs containing various DTSs were pooled together and transfected as a pool into growth-arrested HepG2 cells. Cell growth was inhibited to prevent dissolution of the nuclear envelope, which improves the accuracy of measuring DTS activity related to nuclear translocation. For the arrayed screen, GFP protein expression was quantified 24 h post-transfection by measuring GFP intensity using quantitative live-cell imaging. For the pooled screen, mRNA abundance for each DTS variant was determined using RNA-seq by deconvoluting the read counts for each UMI. A strong correlation between protein expression in the arrayed screen and mRNA expression in the pooled screen was observed (FIG. 6). […] Pooled screening can thus be used to quickly and reliably identify strong DTSs.

[2] = system: growth-arrested HepG2 cells; assay: Pooled DTS screen in growth-arrested HepG2 cells; mRNA abundance by RNA-seq of UMIs; type: cell-based
From the text: Library cloning. Pooled DTS libraries were designed as described above. To ensure the highest quality library production of oligos for cloning, oligo lengths were standardized to 300 bp. To accommodate this standardized length the core sequence of each DTS was embedded center-justified in a neutral fragment of random DNA sequence. The flanks of each oligo contained unique golden gate restriction enzyme digestion sites (Bsal) for cloning of double stranded DNA into screening vectors. […] The proper UMI/DTS barcode correlation (termed here the “library registry”) was determined via excision of the hTTR/eGFP fragments, re-ligation of the vector, PCR amplification of the corresponding proximal DTS and UMI regions, and sequencing on an Illumina Miseq (2×150 bp reads). […]
Quantification of mRNA abundance from pooled DTS screens. […] The PCR amplified cDNA was then library prepped (NEBNext library prep for Illumina) and sequenced on an Illumina Miseq (2×150 bp reads). Counts for each UMI were translated into the corresponding DTS using the UMI/Barcode registry and changes in abundance of each DTS were statistically analyzed using a custom R script. The log 2 fold change is calculated by comparing the RNA level in the pool vs. its expected abundance, which is derived from the abundance in the corresponding input DNA pool. […]

| Molecule | GFP intensity / gene expression in arrayed screen compared to Spacer negative control [1] | mRNA abundance in pooled screen relative to Spacer negative control [2] |
| --- | --- | --- |
| DTS.203: combinatorial DTS: CREB1, PPARA, ONECUT1, HNF4A, PPARA binding sites (nucleic acid) DNA: CTGACGTCAGAGATTACTACTGATACAAAACTAGGTCAAAGGTCAAGATTACTACTGATAGTCTGCTAAGTCAATAATCAGAATAGATTACTACTGATACGCCCCAGCACACATGATCAGAAGATTACTACTGATAAGGTCAAAGGTCA | performed equivalently or better than NFKB |  |
| DTS.276: combinatorial DTS: FOXA1, HNF4A, HNF1A, HNF4A, HNF1A binding sites (nucleic acid) DNA: TGTTTACTTTAGATTACTACTGATATCGAGCGCAGGTCAAAGGTCACCTGCAGATTACTACTGATAGGTTAATAATTAACAGATTACTACTGATATCGAGCGCTGGGCAAAGGTCACCTGCAGATTACTACTGATAAGTATGGTTAATGATCTACAG | performed equivalently or better than NFKB |  |
| DTS.233: combinatorial DTS: HNF1A, NR1I3, PPARA, HNF1A, PPARA binding sites (nucleic acid) DNA: GGTTAATAATTAACAGATTACTACTGATACCTCTTCTCTGTGGGTGACCAGCGTCCTAAGATTACTACTGATAAACTAGGTCAAAGGTCAAGATTACTACTGATAAGTATGGTTAATGATCTACAGAGATTACTACTGATACAAAACTAGGTCAAAGGTCA | performed equivalently or better than NFKB; also recorded: robust increases | robust increases |
